Laboratory results published in US20110097328A1 (MIT, published 2011).

Legend:
[1] = target: T1, PARP5A-GFP fusion protein (UniProt O95271 1-1327); assay: co-immunoprecipitation: anti-GFP IP from lysate of transfected HeLa S3 cells (0 or 20 nM pateamine A, 30 min), immunoblot with anti-LSM1
T1 construct: Expressed in HeLa S3 cells from pEGFP-C1; also called tankyrase 1-GFP; not shown: EGFP (green fluorescent protein) encoded by vector pEGFP-C1, located N-terminal (5') to the PARP
T1 sequence (looked up): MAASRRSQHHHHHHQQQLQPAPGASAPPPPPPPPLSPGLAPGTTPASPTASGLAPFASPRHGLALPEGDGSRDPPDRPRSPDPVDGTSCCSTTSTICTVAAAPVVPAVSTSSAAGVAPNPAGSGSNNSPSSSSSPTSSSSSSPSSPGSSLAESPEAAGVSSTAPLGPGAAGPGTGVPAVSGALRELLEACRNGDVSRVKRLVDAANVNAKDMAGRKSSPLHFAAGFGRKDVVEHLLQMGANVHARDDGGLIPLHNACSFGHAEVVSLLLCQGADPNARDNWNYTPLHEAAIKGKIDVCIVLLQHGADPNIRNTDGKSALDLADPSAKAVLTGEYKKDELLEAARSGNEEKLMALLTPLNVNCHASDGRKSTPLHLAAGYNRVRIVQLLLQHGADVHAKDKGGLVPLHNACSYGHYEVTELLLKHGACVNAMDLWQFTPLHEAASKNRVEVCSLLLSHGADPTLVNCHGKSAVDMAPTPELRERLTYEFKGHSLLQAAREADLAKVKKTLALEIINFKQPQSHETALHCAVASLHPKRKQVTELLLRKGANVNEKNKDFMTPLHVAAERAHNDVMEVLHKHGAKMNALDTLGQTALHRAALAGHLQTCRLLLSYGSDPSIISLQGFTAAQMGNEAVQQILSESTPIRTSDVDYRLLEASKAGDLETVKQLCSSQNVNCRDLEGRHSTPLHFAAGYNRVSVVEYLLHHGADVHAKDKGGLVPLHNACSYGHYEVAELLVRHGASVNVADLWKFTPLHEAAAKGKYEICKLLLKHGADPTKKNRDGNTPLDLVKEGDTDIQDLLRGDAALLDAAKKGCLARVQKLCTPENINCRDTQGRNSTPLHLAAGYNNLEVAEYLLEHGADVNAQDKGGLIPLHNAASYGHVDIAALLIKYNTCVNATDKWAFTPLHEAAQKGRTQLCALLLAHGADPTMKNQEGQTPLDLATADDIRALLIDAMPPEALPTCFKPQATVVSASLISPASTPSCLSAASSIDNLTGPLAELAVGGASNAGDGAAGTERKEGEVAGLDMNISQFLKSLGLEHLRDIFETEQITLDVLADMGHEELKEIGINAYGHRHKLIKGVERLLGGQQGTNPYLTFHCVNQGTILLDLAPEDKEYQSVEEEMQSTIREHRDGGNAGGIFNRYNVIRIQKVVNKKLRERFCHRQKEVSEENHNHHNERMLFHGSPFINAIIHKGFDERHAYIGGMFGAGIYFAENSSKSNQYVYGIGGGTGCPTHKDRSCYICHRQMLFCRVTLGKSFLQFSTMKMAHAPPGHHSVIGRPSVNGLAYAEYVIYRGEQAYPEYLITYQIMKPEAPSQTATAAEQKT
Procedure: (§1) FIG. 25C is a picture of several immunoblots of a 4-12% SDS-PAGE gel containing proteins immunoprecipitated with an anti-GFP antibody from lysate from HeLa S3 cells transfected with a pEGFP-C1 plasmid expressing GFP, PARP5A-GFP, PARP12-GFP, PARP13-GFP, PARP13.1-GFP, or PARP15-GFP following treatment with 0 or 20 nM pateamine A for 30 minutes. The immunoblots were developed using one of the following antibodies: anti-Agog, anti-DDX6, anti-LSM1, anti-PABP, anti-FMRP, anti-eIF1A, anti-eIF2a, anti-eIF3η, anti-eIF4A1, and anti-eIF4E.
(§2) Data from a separate set of experiments indicate that several stress granule-associated proteins bind to the PARP13-GFP, PARP12-GFP, and PARP5A-GFP fusion proteins. In these experiments, HeLa S3 cells were transfected with a pEGFP-C1 plasmid encoding a PARP13-GFP, PARP12-GFP, or PARP5A-GFP fusion protein and treated with 0 or 20 nM pateamine A for 30 minutes. Cell lysates from the cells were immunoprecipitated using an anti-GFP antibody and the immunoprecipitated proteins were electrophoresed using 4-12% SDS-PAGE. The resulting proteins were transferred to a membrane and immunoblotted using commercially-available antibodies specific for different stress granule-associated proteins: Ago2, DDX6, LSM1, PABP, FMRP, eIF1A, eIF2α, eIF3η, eIF4A1, and eIF4E.

[2] = target: T2, PARP12-GFP fusion protein (UniProt Q9H0J9 1-701); assay: as above
T2 construct: Expressed in HeLa S3 cells from pEGFP-C1; not shown: EGFP (green fluorescent protein) encoded by vector pEGFP-C1, located N-terminal (5') to the PARP
T2 sequence (looked up): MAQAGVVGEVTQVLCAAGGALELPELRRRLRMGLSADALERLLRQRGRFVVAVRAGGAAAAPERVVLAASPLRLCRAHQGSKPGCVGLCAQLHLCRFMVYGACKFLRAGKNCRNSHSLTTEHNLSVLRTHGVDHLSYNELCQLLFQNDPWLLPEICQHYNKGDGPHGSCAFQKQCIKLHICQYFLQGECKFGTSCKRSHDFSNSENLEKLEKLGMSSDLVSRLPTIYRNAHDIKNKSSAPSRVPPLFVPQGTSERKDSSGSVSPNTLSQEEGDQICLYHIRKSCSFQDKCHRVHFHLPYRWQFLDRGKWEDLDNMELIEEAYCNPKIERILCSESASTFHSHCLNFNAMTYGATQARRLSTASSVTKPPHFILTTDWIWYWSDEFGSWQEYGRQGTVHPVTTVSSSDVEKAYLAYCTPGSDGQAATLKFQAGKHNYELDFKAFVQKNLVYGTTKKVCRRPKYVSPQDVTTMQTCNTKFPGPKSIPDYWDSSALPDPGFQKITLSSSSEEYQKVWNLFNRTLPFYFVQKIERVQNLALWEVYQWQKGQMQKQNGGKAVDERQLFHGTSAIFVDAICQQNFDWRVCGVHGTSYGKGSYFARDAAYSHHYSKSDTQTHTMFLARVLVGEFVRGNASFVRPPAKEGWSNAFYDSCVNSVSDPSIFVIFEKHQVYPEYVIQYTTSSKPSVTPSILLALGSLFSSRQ
Procedure: as §1, §2

B1: LSM1 (other, human (HeLa S3 cells), UniProt O15116 1-133, looked up)
single chain: MNYMPGTASLIEDIDKKHLVLLRDGRTLIGFLRSIDQFANLVLHQTVERIHVGKKYGDIPRGIFVVRGENVVLLGEIDLEKESDTPLQQVSIEEILEEQRVEQQTKLEAEKLKVQALKDRGLSIPRADTLDEY
notes: endogenous protein in the cell lysate; member of the group m8
B1: no binding [1]; no binding [2].
